Residue numbers refer to the chain shown, from its start.
What was measured:
[1] = molecular target: T1, AtrR DNA-binding domain (AtrR-DBD) (Aspergillus fumigatus) (UniProt Q4WI89); assay: EMSA; conditions: Biotin EMSA: 25 mM Tris-HCl pH 7.5, 80 mM NaCl, 35 mM KCl, 5 mM MgCl2, 10% glycerol, 1 ug poly(dI-dC), 20 ul, 0.1 ug AtrR-DBD, 20 pmol probe, room temperature …
T1 sequence: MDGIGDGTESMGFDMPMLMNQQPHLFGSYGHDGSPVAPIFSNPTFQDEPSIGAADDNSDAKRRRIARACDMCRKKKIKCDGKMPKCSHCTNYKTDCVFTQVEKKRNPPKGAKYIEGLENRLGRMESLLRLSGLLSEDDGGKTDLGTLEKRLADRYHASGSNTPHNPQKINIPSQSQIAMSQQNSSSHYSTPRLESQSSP

[2] = molecular target: T2, AtrR DNA-binding domain (AtrR-DBD) (Aspergillus fumigatus, UniProt Q4WI89 1-199); assay: competition; 10-fold excess over biotinylated 34-bp probe (12-fold in Methods); Biotin EMSA: 25 mM Tris-HCl pH 7.5, 80 mM NaCl, 35 mM KCl, 5 mM MgCl2, 10% glycerol, 1 ug poly(dI-dC), 20 ul, 0.1 ug AtrR-DBD, 20 pmol probe, room temperature 30 min; 32P EMSA and footprinting as in cited reference 40; conditions: protein: recombinant; chain copies: 2; blunt
T2 sequence: T1 sequence

[3] = molecular target: T2, AtrR DNA-binding domain (AtrR-DBD); assay: EMSA; 5 mM Mg2+, poly(dI-dC); Biotin EMSA: 25 mM Tris-HCl pH 7.5, 80 mM NaCl, 35 mM KCl, 5 mM MgCl2, 10% glycerol, 1 ug poly(dI-dC), 20 ul, 0.1 ug AtrR-DBD, 20 pmol probe, room temperature 30 min; 32P EMSA and footprinting as in cited reference 40; conditions: protein: recombinant; chain copies: 2; label: 5' biotin on both strands; blunt

GAAAAAACTCATGAGTGAATAATCGCAGCACCACTCCAGAGTTGTCTAGAATCACGCGGTCCGGATGTGTGCTGAGCCGAATGAAAGTTGCCTAATTACTAAGGTGTAGTTCCAGCATACCATACACCCTAACTCATACTACGGTAGGTAGATCTACTTACCTATGAACCTATATTGGTAGGTAGGTGAATATAAAATACAGCATG (double strand) [cyp51A promoter PCR probe]
binding [1]: binds

B1: EcoRI mutant competitor (dsDNA)
DNA 1: GTTGTCTCAGAATCACGCGGTCCGGATGTGGAATTCGCCGAAT
DNA 2: ATTCGGCGAATTCCACATCCGGACCGCGTGATTCTGAGACAAC
binding result [2]: binds

B2: SphI mutant competitor (dsDNA)
DNA 1: GTTGTCTCAGAATCACGCGGGCATGCTGTGTGCTGAGCCGAAT
DNA 2: ATTCGGCTCAGCACACAGCATGCCCGCGTGATTCTGAGACAAC
binding result [2]: no binding

B3: DM competitor (dsDNA)
DNA 1: GAATCACGCGGTATTGATGTGTGCTGAGTATAAT
DNA 2: ATTATACTCAGCACACATCAATACCGCGTGATTC
binding result [2]: no binding

B4: cyp51A 34-bp probe (dsDNA)
DNA 1: GAATCACGCGGTCCGGATGTGTGCTGAGCCGAAT
DNA 2: ATTCGGCTCAGCACACATCCGGACCGCGTGATTC
binding result [3]: binds

B5: cyp51A 42-bp wild-type competitor (dsDNA)
DNA 1: B2 DNA 1 with G21T, A23C, T24G, C26A
DNA 2: B2 DNA 2 with G18T, A20C, T21G, C23A
binding result [2]: binds

Reference: PMC6414702, “AtrR Is an Essential Determinant of Azole Resistance in Aspergillus fumigatus”
